Data taken from paper PMC10458530, “Synthesis and Evaluation of ePSMA-DM1: A New Theranostic Small-Molecule Drug Conjugate (T-SMDC) for Prostate Cancer” (Pharmaceuticals, 2023).
Like-named read-outs stand apart in the source and are kept apart here. Non-standard residues stand in square brackets, D forms with d. Residues, ends and D or L forms follow the SMILES beside them. *: point of attachment. Propanoyl(3-SS-DM1) = COc1cc2cc(c1Cl)N(C)C(=O)C[C@H](OC(=O)[C@H](C)N(C)C(=O)CCSSCCC(=O)*)[C@]1(C)O[C@H]1[C@H](C)[C@@H]1C[C@@](O)(NC(=O)O1)[C@H](OC)/C=C/C=C(\C)C2; DOTA = O=C(O)CN1CCN(CC(=O)O)CCN(CC(=O)*)CCN(CC(=O)O)CC1; EuK = O=C(O)CC[C@H](NC(=O)N[C@@H](CCCCN*)C(=O)O)C(=O)O; Sta = CC(C)C[C@H](N)[C@@H](O)CC(=O)O; Ahx = NCCCCCC(=O)O

Experiments:
[1] = LogD7.4 by shake-flask method; format: physicochemical; conditions: PBS pH 7.4/n-octanol
Method: The distribution coefficients (LogD7.4 values) were determined by the shake-flask method, in which 2 μL (~0.5 MBq) of [^111In]In-ePSMA-DM1 was added to an Eppendorf tube containing 1 mL of PBS (0.01 M, pH 7.4)/n-octanol (v/v, 1:1). After vigorous vortexing, the solution was centrifuged at 2500 g for 3 min for phase separation. The n-octanol phase was separated from the PBS phase into a new Eppendorf tube and centrifuged for 15 min. Samples (3 × 10 μL) of the two phases were taken out and measured in the γ-counter. LogD7.4 values were calculated by using the following equation: LogD7.4 = log [(counts in octanol phase)/(counts in aqueous phase)] and the experiment was performed in triplicate.

Ex vivo biodistribution = format: in vivo, mouse; conditions: male, mouse, intravenous, total radioactivity; for tissue uptake at 1 h: 1 h p.i.; for tissue uptake at 4 h: 4 h p.i.; for tissue uptake at 24 h: 24 h p.i.
Method: Animal experiments were performed using male BALB/c nude mice (8–10 weeks old; Janvier Labs, Le Genest-Saint-Isle, France). Animals were housed in individually ventilated cages (Blue line IVC, 2 mice per cage) under sterile standard conditions with cage enrichments present and free access to animal chow (Sniff GmbH, Soest, Germany) and water. They were acclimated for 1 week prior to experiments. Mice were subcutaneously inoculated with 4.0 × 10^6 LS174T cells in the right flank diluted in 100 μL of cell suspension […]. The average tumor volume size per group (n = 4) was of 206.2 ± 7.9 mm^3 (average weight of 105.8 ± 7.3 mg) after non-blinded grouping to enable homogenous tumor size distribution. [^111In]In-ePSMA-DM1 was injected intravenously via the tail vein. All experiments were approved by the institutional Animal Welfare Committee and were conducted in accordance to the guidelines of the Revised Dutch Act on Animal Experimentation (WOD).
Mice were intravenously injected with ~1 nmol of [^111In]In-ePSMA-DM1 (5 MBq). Mice (n = 4/timepoint) were euthanized by cervical dislocation at 1, 4 and 24 h p.i. A block group (co-injection of 50 nmol of PSMA-617) was included, and mice were euthanized at 4 h p.i. Organs (blood, heart, lungs, liver, spleen, stomach, intestines, pancreas, kidneys, muscle, skin, bone and prostate) and the tumors were collected in pre-weighed tubes, weighed after organ collection, and measured in the γ-counter, for which the calibration factor was determined by measuring different known activities of In-111. Activity was corrected for decay, and uptake was expressed as percentage of the injected dose per gram of the tissue (% ID/g). The biological half-lives in tissues of [^111In]In-ePSMA-DM1 were determined using a one-phase decay algorithm in GraphPad Prism 9.0 (GraphPad Software, Boston, MA, USA).

[2] = BALB/c nude (BALB/c nu/nu), blood, 1 nmol, read-out: uptake in blood
[3] = BALB/c nude (BALB/c nu/nu), heart, 1 nmol, read-out: uptake in heart
[4] = BALB/c nude (BALB/c nu/nu), kidney, 1 nmol, read-out: uptake in kidney
[5] = BALB/c nude (BALB/c nu/nu), liver, 1 nmol, read-out: uptake in liver
[6] = BALB/c nude (BALB/c nu/nu), lung, 1 nmol, read-out: uptake in lung
[7] = BALB/c nude (BALB/c nu/nu), muscle, 1 nmol, read-out: uptake in muscle
[8] = BALB/c nude (BALB/c nu/nu), pancreas, 1 nmol, read-out: uptake in pancreas
[9] = BALB/c nude (BALB/c nu/nu), skin, 1 nmol, read-out: uptake in skin
[10] = BALB/c nude (BALB/c nu/nu), spleen, 1 nmol, read-out: uptake in spleen
[11] = BALB/c nude (BALB/c nu/nu), stomach, 1 nmol, read-out: uptake in stomach
[12] = BALB/c nude (BALB/c nu/nu), tumor, 1 nmol, read-out: uptake in tumor
[13] = BALB/c nude (nu/nu), bone, 1 nmol, read-out: uptake in bone
[14] = BALB/c nude (nu/nu), intestines, 1 nmol, read-out: uptake in intestines
[15] = BALB/c nude (nu/nu), prostate, 1 nmol, read-out: uptake in prostate

Structure (SMILES): COc1cc2cc(c1Cl)N(C)C(=O)C[C@H](OC(=O)[C@H](C)N(C)C(=O)CCSSCCC(=O)NCCCC[C@H](NC(=O)CN1CCN(CC(=O)O)CCN(CC(=O)O)CCN(CC(=O)O)CC1)C(=O)N[C@@H](CC(=O)O)C(=O)N[C@@H](Cc1ccccc1)C(=O)N[C@@H](CC(C)C)[C@@H](O)CC(=O)NCCCCCC(=O)NCCCC[C@H](NC(=O)N[C@@H](CCC(=O)O)C(=O)O)C(=O)O)[C@]1(C)O[C@H]1[C@H](C)[C@@H]1C[C@@](O)(NC(=O)O1)[C@H](OC)/C=C/C=C(\C)C2 [[^111In]In-ePSMA-DM1, metal not drawn] ({DOTA}-K(Propanoyl(3-SS-DM1))DF[Sta][Ahx]-EuK)
- logD [1]: -2.47 ± 0.11
- tissue uptake at 1 h (Ex vivo biodistribution; [2]): 1.43 ± 0.04 %ID/g
- tissue uptake at 4 h (Ex vivo biodistribution; [2]): 0.37 ± 0.01 %ID/g
- tissue uptake at 24 h (Ex vivo biodistribution; [2]): 0.04 %ID/g
- tissue uptake at 4 h (Ex vivo biodistribution; BALB/c nude (BALB/c nu/nu), blood, block (co-injection of PSMA-617), read-out: uptake in blood): 0.3 ± 0.04 %ID/g
- tissue uptake at 1 h (Ex vivo biodistribution; [3]): 0.65 ± 0.1 %ID/g
- tissue uptake at 4 h (Ex vivo biodistribution; [3]): 0.23 ± 0.04 %ID/g
- tissue uptake at 24 h (Ex vivo biodistribution; [3]): 0.1 ± 0.02 %ID/g
- tissue uptake at 4 h (Ex vivo biodistribution; BALB/c nude (BALB/c nu/nu), heart, block (co-injection of PSMA-617), read-out: uptake in heart): 0.18 %ID/g
- tissue uptake at 1 h (Ex vivo biodistribution; [4]): 34 ± 2.54 %ID/g
- tissue uptake at 4 h (Ex vivo biodistribution; [4]): 31.6 ± 1.78 %ID/g
- tissue uptake at 24 h (Ex vivo biodistribution; [4]): 13.2 ± 0.95 %ID/g
- tissue uptake at 4 h (Ex vivo biodistribution; BALB/c nude (BALB/c nu/nu), kidney, block (co-injection of PSMA-617), read-out: uptake in kidney): 24 ± 1.46 %ID/g
- tissue uptake at 1 h (Ex vivo biodistribution; [5]): 0.68 %ID/g
- tissue uptake at 4 h (Ex vivo biodistribution; [5]): 0.63 ± 0.02 %ID/g
- tissue uptake at 24 h (Ex vivo biodistribution; [5]): 0.39 ± 0.04 %ID/g
- tissue uptake at 4 h (Ex vivo biodistribution; BALB/c nude (BALB/c nu/nu), liver, block (co-injection of PSMA-617), read-out: uptake in liver): 0.56 ± 0.05 %ID/g
- tissue uptake at 1 h (Ex vivo biodistribution; [6]): 1.34 ± 0.18 %ID/g
- tissue uptake at 4 h (Ex vivo biodistribution; [6]): 0.4 ± 0.03 %ID/g
- tissue uptake at 24 h (Ex vivo biodistribution; [6]): 0.25 ± 0.12 %ID/g
- tissue uptake at 4 h (Ex vivo biodistribution; BALB/c nude (BALB/c nu/nu), lung, block (co-injection of PSMA-617), read-out: uptake in lung): 0.51 ± 0.26 %ID/g
- tissue uptake at 1 h (Ex vivo biodistribution; [7]): 0.3 ± 0.06 %ID/g
- tissue uptake at 4 h (Ex vivo biodistribution; [7]): 0.21 ± 0.16 %ID/g
- tissue uptake at 24 h (Ex vivo biodistribution; [7]): 0.07 ± 0.01 %ID/g
- tissue uptake at 4 h (Ex vivo biodistribution; BALB/c nude (BALB/c nu/nu), muscle, block (co-injection of PSMA-617), read-out: uptake in muscle): 0.1 ± 0.01 %ID/g
- tissue uptake at 4 h (Ex vivo biodistribution; [8]): 0.17 ± 0.01 %ID/g
- tissue uptake at 24 h (Ex vivo biodistribution; [8]): 0.09 ± 0.01 %ID/g
- tissue uptake at 4 h (Ex vivo biodistribution; BALB/c nude (BALB/c nu/nu), pancreas, block (co-injection of PSMA-617), read-out: uptake in pancreas): 0.14 ± 0.02 %ID/g
- tissue uptake at 1 h (Ex vivo biodistribution; [9]): 1.37 ± 0.29 %ID/g
- tissue uptake at 4 h (Ex vivo biodistribution; [9]): 0.75 ± 0.12 %ID/g
- tissue uptake at 1 h (Ex vivo biodistribution; [10]): 1.32 ± 0.28 %ID/g
- tissue uptake at 4 h (Ex vivo biodistribution; [10]): 0.47 ± 0.08 %ID/g
- tissue uptake at 24 h (Ex vivo biodistribution; [10]): 0.27 ± 0.01 %ID/g
- tissue uptake at 4 h (Ex vivo biodistribution; BALB/c nude (BALB/c nu/nu), spleen, block (co-injection of PSMA-617), read-out: uptake in spleen): 0.32 ± 0.02 %ID/g
- tissue uptake at 1 h (Ex vivo biodistribution; [11]): 0.8 ± 0.61 %ID/g
- tissue uptake at 4 h (Ex vivo biodistribution; [11]): 0.47 ± 0.32 %ID/g
- tissue uptake at 4 h (Ex vivo biodistribution; [12]): 1.19 ± 0.22 %ID/g
- tissue uptake at 24 h (Ex vivo biodistribution; [12]): 0.5 ± 0.14 %ID/g
- tissue uptake at 4 h (Ex vivo biodistribution; BALB/c nude (BALB/c nu/nu), tumor, block (co-injection of PSMA-617), read-out: uptake in tumor): 0.8 ± 0.31 %ID/g
- tissue uptake at 1 h (Ex vivo biodistribution; [13]): 0.73 ± 0.27 %ID/g
- tissue uptake at 4 h (Ex vivo biodistribution; [13]): 0.41 ± 0.06 %ID/g
- tissue uptake at 24 h (Ex vivo biodistribution; [13]): 0.3 ± 0.03 %ID/g
- tissue uptake at 4 h (Ex vivo biodistribution; BALB/c nude (nu/nu), bone, block (co-injection of PSMA-617), read-out: uptake in bone): 0.33 ± 0.04 %ID/g
- tissue uptake at 1 h (Ex vivo biodistribution; [14]): 0.56 ± 0.19 %ID/g
- tissue uptake at 4 h (Ex vivo biodistribution; [14]): 0.45 ± 0.2 %ID/g
- tissue uptake at 24 h (Ex vivo biodistribution; [14]): 0.12 ± 0.03 %ID/g
- tissue uptake at 4 h (Ex vivo biodistribution; BALB/c nude (nu/nu), intestines, block (co-injection of PSMA-617), read-out: uptake in intestines): 0.56 ± 0.35 %ID/g
- tissue uptake at 1 h (Ex vivo biodistribution; BALB/c nude (nu/nu), pancreas, 1 nmol, read-out: uptake in pancreas): 0.43 ± 0.11 %ID/g
- tissue uptake at 1 h (Ex vivo biodistribution; [15]): 1.92 ± 0.87 %ID/g
- tissue uptake at 4 h (Ex vivo biodistribution; [15]): 0.46 ± 0.19 %ID/g
- tissue uptake at 24 h (Ex vivo biodistribution; [15]): 0.16 ± 0.03 %ID/g
- tissue uptake at 4 h (Ex vivo biodistribution; BALB/c nude (nu/nu), prostate, block (co-injection of PSMA-617), read-out: uptake in prostate): 0.4 ± 0.18 %ID/g
- tissue uptake at 24 h (Ex vivo biodistribution; BALB/c nude (nu/nu), skin, 1 nmol, read-out: uptake in skin): 0.44 ± 0.05 %ID/g
- tissue uptake at 4 h (Ex vivo biodistribution; BALB/c nude (nu/nu), skin, block (co-injection of PSMA-617), read-out: uptake in skin): 0.57 ± 0.19 %ID/g
- tissue uptake at 24 h (Ex vivo biodistribution; BALB/c nude (nu/nu), stomach, 1 nmol, read-out: uptake in stomach): 0.05 ± 0.02 %ID/g
- tissue uptake at 4 h (Ex vivo biodistribution; BALB/c nude (nu/nu), stomach, block (co-injection of PSMA-617), read-out: uptake in stomach): 0.3 ± 0.24 %ID/g
- tissue uptake at 1 h (Ex vivo biodistribution; BALB/c nude (nu/nu), tumor, 1 nmol, read-out: uptake in tumor): 2.39 ± 0.29 %ID/g
